{"source": "patent US20160324962A1", "about": "“COMPOSITIONS AND METHODS FOR TREATING SARCOMA” (MEDIMMUNE, LLC, priority 2013, published 2016)", "molecules": {"B1": {"name": "MEDI-573: fully human monoclonal IgG2 lambda antibody that binds IGF-2 with cross reactivity to IGF-1; hybridoma 7.159.2, ATCC PTA-7424 (antibody)", "heavy": "QVQLVQSGAEVKKPGASVKVSCKASGYTFTSYDINWVRQATGQGLEWMGWMNPNSGNTGYAQKFQGRVTMTRNTSISTAYMELSSLRSEDTAVYYCARDPYYYYYGMDVWGQGTTVTVSSASTKGPSVFPLAPCSRSTSESTAALGCLVKDYFPEPVTVSWNSGALTSGVHTFPAVLQSSGLYSLSSVVTVPSSNFGTQTYTCNVDHKPSNTKVDKTVERKCCVECPPCPAPPVAGPSVFLFPPKPKDTLMISRTPEVTCVVVDVSHEDPEVQFNWYVDGVEVHNAKTKPREEQFNSTFRVVSVLTVVHQDWLNGKEYKCKVSNKGLPAPIEKTISKTKGQPREPQVYTLPPSREEMTKNQVSLTCLVKGFYPSDIAVEWESNGQPENNYKTTPPMLDSDGSFFLYSKLTVDKSRWQQGNVFSCSVMHEALHNHYTQKSLSLSPGK", "light": "QSVLTQPPSVSAAPGQKVTISCSGSSSNIENNHVSWYQQLPGTAPKLLIYDNNKRPSGIPDRFSGSKSGTSATLGITGLQTGDEADYYCETWDTSLSAGRVFGGGTKLTVLGQPKAAPSVTLFPPSSEELQANKATLVCLISDFYPGAVTVAWKADSSPVKAGVETTTPSKQSNNKYAASSYLSLTPEQWKSHRSYSCQVTHEGSTVEKTVAPTECS"}}, "format_in_all_cases": "cell-based", "key": {"SJCRH30 cells": {"tested_on": "SJCRH30 cells", "experiment": "In vitro cell proliferation (CellTiter-Glo), no exogenous IGF", "conditions": "3 days", "description": "(§1) To determine the effect of treatment with MEDI-573 antibody on the growth of tumor cells, three rhabdomyosarcoma cell lines (RD, SJCRH30, and Hs729); three Ewing's sarcoma cell lines (RD-ES, TC-71, and SK-ES-1), and four osteosarcoma cell lines (SJSA-1, KHOS, MG-63, and SAOS2) were treated with MEDI-573, an anti-IGF antibody, in the absence of exogenous IGF-1 or IGF-2.\n(§2) Sarcoma cell lines were cultured overnight in regular growth medium. The following day, medium containing 0.1% charcoal stripped fetal bovine serum (FBS) was added and the cells incubated overnight. The next day, cells were treated with various amounts of MEDI-573 and the cultures incubated for 3 days. Proliferation was quantified using the CellTiter-Glo (CTG) reagent (Promega, Madison, Wis.)."}, "SAOS2 cells": {"tested_on": "SAOS2 cells", "experiment": "In vitro cell proliferation (CellTiter-Glo), no exogenous IGF", "conditions": "3 days", "description": "as §1, §2"}, "TC-71 cells": {"tested_on": "TC-71 cells", "experiment": "In vitro cell proliferation (CellTiter-Glo), no exogenous IGF", "conditions": "3 days", "description": "as §1, §2"}, "KHOS cells [1]": {"tested_on": "KHOS cells", "experiment": "In vitro cell proliferation (CellTiter-Glo), no exogenous IGF", "conditions": "3 days", "description": "as §1, §2"}, "Hs729 cells": {"tested_on": "Hs729 cells", "experiment": "In vitro cell proliferation (CellTiter-Glo), no exogenous IGF", "conditions": "3 days", "description": "as §1, §2"}, "RD-ES cells": {"tested_on": "RD-ES cells", "experiment": "In vitro cell proliferation (CellTiter-Glo), no exogenous IGF", "conditions": "3 days", "description": "as §1, §2"}, "SK-ES-1 cells": {"tested_on": "SK-ES-1 cells", "experiment": "In vitro cell proliferation (CellTiter-Glo), no exogenous IGF", "conditions": "3 days", "description": "as §1, §2"}, "MG-63 cells": {"tested_on": "MG-63 cells", "experiment": "In vitro cell proliferation (CellTiter-Glo), no exogenous IGF", "conditions": "3 days", "description": "as §1, §2"}, "pS6K": {"tested_on": "pS6K", "experiment": "Immunoblot of cell lysates after MEDI-573, mTORi, combination", "conditions": "RD-ES and SJSA-1 cells, 4 hours", "description": "(§3) To examine the effect of MEDI-573, mTORi, and combination of both on IGF signaling, RD-ES, SJSA-1, and KHOS cells were treated with these agents for 4 hours. After separation of the cell lysates by gel electrophoresis, the proteins were detected by immunoblotting."}, "p4EBP1": {"tested_on": "p4EBP1", "experiment": "Immunoblot of cell lysates after MEDI-573, mTORi, combination", "conditions": "single agent, 4 hours", "description": "as §3"}, "KHOS cells [2]": {"tested_on": "KHOS cells", "experiment": "IGF-induced proliferation (CTG)", "description": "(§4) To access the effect of MEDI-573 on IGF-Induced proliferation, MEDI-573 or isotype control, was added to the cells for 30 minutes at 37° C. IGF-1 or IGF-2 was then added to the appropriate wells and incubated for 3 days. Proliferation was quantified using the CTG reagent."}, "RD cells": {"tested_on": "RD cells", "experiment": "IGF-induced proliferation (CTG)", "description": "as §4"}}, "data": [{"molecule": "B1", "values": [{"measurement": "IC50", "setting": "SJCRH30 cells", "value": 3.2, "unit": "µM"}, {"measurement": "IC50 (μM)", "setting": "SAOS2 cells", "value": "Inactive"}, {"measurement": "IC50", "setting": "TC-71 cells", "value": 2.7, "unit": "µM"}, {"measurement": "IC50 (μM)", "setting": "KHOS cells [1]", "value": "Inactive"}, {"measurement": "IC50 (μM)", "setting": "Hs729 cells", "value": "Inactive"}, {"measurement": "IC50", "setting": "RD-ES cells", "value": 6.9, "unit": "µM"}, {"measurement": "IC50", "setting": "SK-ES-1 cells", "value": 3.2, "unit": "µM"}, {"measurement": "IC50 (μM)", "setting": "MG-63 cells", "value": "Inactive"}, {"measurement": "phosphorylation of S6K", "setting": "pS6K", "value": "inhibited phosphorylation of S6K"}, {"measurement": "phosphorylation of 4EBP1", "setting": "p4EBP1", "value": "did not have effect"}, {"measurement": "IGF-1 IC50 (μM)", "setting": "KHOS cells [2]; KHOS cells stimulated with IGF-1", "value": "No Induction"}, {"measurement": "IGF-2 IC50 (μM)", "setting": "KHOS cells [2]; KHOS cells stimulated with IGF-2", "value": "No Induction"}, {"measurement": "effect on growth", "setting": "KHOS cells [2]; KHOS cells, with or without IGF stimulation", "value": "failed to have any significant effect"}, {"measurement": "IGF-1 IC50 (μM)", "setting": "RD cells; RD cells stimulated with IGF-1", "value": "No Induction"}, {"measurement": "IGF-2 IC50 (μM)", "setting": "RD cells; RD cells stimulated with IGF-2", "value": "No Induction"}, {"measurement": "effect on growth", "setting": "RD cells; RD cells, with or without IGF stimulation", "value": "failed to have any significant effect"}]}]}
